Results published in PMC9842712, “Cryo-EM structure of hnRNPDL-2 fibrils, a functional amyloid associated with limb-girdle muscular dystrophy D3” (Nature Communications, 2022).

T1: hnRNPDL-2 (soluble) (human, UniProt O14979-2 1-301)
T1 sequence: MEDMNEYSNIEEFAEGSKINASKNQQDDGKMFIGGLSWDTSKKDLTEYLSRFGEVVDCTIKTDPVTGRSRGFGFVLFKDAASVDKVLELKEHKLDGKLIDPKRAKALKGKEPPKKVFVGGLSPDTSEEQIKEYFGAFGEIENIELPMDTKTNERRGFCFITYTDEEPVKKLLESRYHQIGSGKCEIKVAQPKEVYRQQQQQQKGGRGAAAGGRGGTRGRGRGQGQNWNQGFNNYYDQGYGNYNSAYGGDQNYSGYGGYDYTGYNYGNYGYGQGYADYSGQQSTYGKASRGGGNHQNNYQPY


Tests used:
[1] = molecular target: the molecule itself; assay: cryo-EM structure; helical reconstruction of amyloid fibrils formed at pH 7.5, 300 mM NaCl; single protofilament, cross-beta stacking of subunits; 2.5 Å
[2] = molecular target: T1, hnRNPDL-2 (soluble); assay: EMSA; apparent Kd, Hill fit; 50 nM probe; EMSA: 10 ul, 50 nM probe, 24 h at RT, 8% polyacrylamide gel, buffer not stated; fibril binding: 24 h at RT, spin 16,000 x g at 4 C, pellet wash 50 mM HEPES pH 7.5, 150 mM NaCl; details: protein: recombinant; tags: N-terminal His-SUMO (expression construct); label: fluorescein, printed at 5' side (F-); FITC in peer review file; single strand, 7-mer

| Binder | binding result [1] | Kd [2] [µM] |
| --- | --- | --- |
| hnRNPDL-2 (human heterogeneous ribonucleoprotein D-like, isoform 2), wild type (natural protein, UniProt O14979-2 1-301, looked up, Heterogeneous nuclear ribonucleoprotein D-like, human, isoform hnRNPDL-2 of 301 residues (RRM1, RRM2, C-terminal Y/G-rich LCD ~201-285, PY-NLS 281-301; exon 6 = residues 224-280). numbers count on: hnRNPDL-2 (the 301-residue isoform); Cloned in pETite with a His-SUMO N-terminal tag; In the fibril the subunits stack in a single protofilament; also called WT hnRNPDL-2; full-length hnRNPDL-2; …) MEDMNEYSNIEEFAEGSKINASKNQQDDGKMFIGGLSWDTSKKDLTEYLSRFGEVVDCTIKTDPVTGRSRGFGFVLFKDAASVDKVLELKEHKLDGKLIDPKRAKALKGKEPPKKVFVGGLSPDTSEEQIKEYFGAFGEIENIELPMDTKTNERRGFCFITYTDEEPVKKLLESRYHQIGSGKCEIKVAQPKEVYRQQQQQQKGGRGAAAGGRGGTRGRGRGQGQNWNQGFNNYYDQGYGNYNSAYGGDQNYSGYGGYDYTGYNYGNYGYGQGYADYSGQQSTYGKASRGGGNHQNNYQPY | binds |  |
| GACUAGC (ssRNA) [F-RNA (F-GACUAGC)] |  | 22.8 ± 3.95 |
